# Experimental data: the nanobody polyreactivity screen of Harvey et al. (2022)
# Assay: yeast display, Sf9 membrane polyspecificity reagent, FACS + sequencing; frameworks hold sequencing errors
# How it was run: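 Nanobodies came from a synthetic yeast display library in Saccharomyces cerevisiae BJ5465, induced with galactose for 36–48 hours and stained for 1 hour at 4 °C with 10% biotinylated, detergent-solubilized Sf9 membrane reagent. Cells were enriched on streptavidin microbeads and then FACS-sorted, with low and high (top ~1%) gates set on anti-HA fluorescence for expression and streptavidin fluorescence for reagent binding. Each polyreactivity label reflects the gate a clone came from. Genes were amplified by colony PCR, sequenced by MiSeq 2 × 250 and filtered by CDR length.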
row,Sequence,polyreactivity (PSR sort gate)
1,QVQLVESGGGLVQAGGSLRLSCAASGSTFGYAMGWYRQAPGKERELVAAITSTGGSTYYADSVKGRFTISRDNAKNTVYLQKNSLKPEDTAVYDCAADAYWIRSRFLYRMRSNSWGQGTQVTVSS,high polyreactivity
2,QVQLVESGGGLVQAGGSLRLSCAASGSIFRYNAMGWYRQAPGKERELVAAITRSGGRTYYADSVKGRFTISRDNAKNTVYLQMNSLKPEDTAVYYCAAKGYTYGLTYDYWGQGTQVTVSS,high polyreactivity
3,QLHLVESGGGLVQAGGSLRLSCAASVSIFNIYAMGWYRQAPGKERELVATITGIADSTYYADSVKGRFTISRDNAKNTVYLQMNSLKPEDTAVYYCAADKYVAEYDYWGQGTQVTVSS,low polyreactivity
4,QVQLVDSGGGLVQAGGSLRLSCAASGFTFVPYAMGWYRQAPGKERETNADSVKGRFTISRDNAKNTVYLQMNSLKPEDTAVYYCAAGGYGPYDYWGQGTQVTVSS,low polyreactivity
5,QVQLVESGGGLVQAGGSVRLSCGASGRSFQRYALGWYRQAPGTERELVAAIRWSGGATYGDSVKGRFTISRDNAKNTVYLQMNSLQPEDTAVYYCAAVDRRDPYYPKYNYWGQGTQVTVSS,high polyreactivity
6,QVQLVESGGGLVQAGGSLSLSCAASGSTFVPNLMGWYRQAPGKERELVAAITWSGGTTTFYADSVKGRFTISRDNAKNTVYLQMNSLKPEDTAVYYCAVTRGGQYYPYYYWGQGTQVTVSS,low polyreactivity
7,QVQLVESGGGLVQAGGSLRLSCAASGFTFRYYAMGWYRQAPGKERELVASITSGGSTNYADSVKGRFTISRDNAKNTVYLQMNSLKPEDTAVYYCAAQPYKGTGYDYWGQGTQVTVSS,high polyreactivity
8,QVQLVESGGGLVQAGGSLRLSCAASGSILQDYTMGWYRQAPGKERELVAAITWNGGSTYYADSVKGRFTISRDNEKNTVYLHMTSLKPEHTAVYYCAAYCRVVPSFYYWGQGTQVTVSS,low polyreactivity
9,QVQLVESGGGLVQAGGSLRLSCAASGRTFPIYAMGWYRQSPGKERELVAAITYSGGSTYYADSVKGRFTISRDNANNKVYLKMNSLKPEDTSVYYCAVDGTKPYWHQRYDYWGQGTQVTVSS,low polyreactivity
10,HVQLQESGGGLVQAGGSLRLSCAASGNISYSRNMGWYRQAQGKERELVAAIDRGAITYYADSVKGRFTISRDNAKNTVDLQIYSLNPEDTAVYYCAAEYHDRWDHRYWGQGTQVTVSS,high polyreactivity
11,QVQLVESGGGLVQAGGSLRLSCAASGSTLGFNAMGWYRQAPGKEREFVAGISASGSSTYYADSVKGRFTISRDNAKNTVYLQMNSLKPEDTAVYYCAARASGGPYWSRGKYWGQGTQVTVSS,high polyreactivity
12,QVQLVESGGGLVQAGGSLRLSCAASGGTFGINDMGWYRQAPGKERDLVAAISWSGGDTYYADSVKGRFTISRDNAKNTVYLQRNSLKPEDTAVYYCAADYHYTKSMYYWGQGTQVSVSS,low polyreactivity
13,QVQLVESGGGLVQAGGSLRLSCAASGSTFPDYAMGWYRQAPGKERELVAAISGDSDDTYYADSVKGRFTISRDNAKNTVYLQMNSLKPEDTAVYYCAARRGRAVYSVAYDYWGQATQVTVSS,high polyreactivity
14,QVQLVESAGGLVQAGGSLRLSCAASGRIFQFYAMGWYRQARGKERELVAVITRRGGSTHYADSVKGRFTISRDTAKNTVYLQMNILKPEDTAVYYCAKVPFHFVSPYDYWGQGTQVTVSS,high polyreactivity
15,QVQLVESGGGLVQAGGSLRLSCAASGLTFAGYAMGWYRQAPGKERELVAAITYSTGRTYYADSVKGRFTISRDNAKTTVYFQMNSLKPEDTAVYYCAALLRGQDRTMDYWGQGTQVTVSS,high polyreactivity
16,QVQLVESGGGLVQAGGSLRLSCAASGNIFKVNAMGWYRQAPGKERELVAGISWSGGSTYYADSVKGRFTISRDNAKNTVYLQMNSLKPEDTAVYYGNVGRGYWGYLYDYWGQGTQGTVSS,low polyreactivity
17,QVQLVESGGGLVQAGGSLRLSCAASGRTFTYYGKGWYRQAPGKERELVAAITERGDSTYYADSVKGRFTISRDNAKNTVYLQMNSLKPEDTAVYYCAAAEHLTRPTSPTQDGDHWGQGTQVTVSS,low polyreactivity
18,QVQLVESGGGLVQAGGSLRLSCAASGFTFRRNAMGWYRQAPGKEMELVASISSRGGITYYADSVKGRFTISRDNAKNTVYLQMNSLNPEDTAVYYCAVRFSRYTSNWRQSYDYWGQGTQVTVSS,low polyreactivity
19,QVQLVESGGGLVQAGGSLRLSFAASGSTFHYYAMGWYRQAPGKERELVAAINSGARTYYADSVKGRFTISRDNAKNTVYLQMNSLKPEDTAVYYCAADDSYRSIGGDYWGQGTQVTVSS,low polyreactivity
20,QVQLVESGGALVQAGGSLRLSCAASGSTVKYYAMGWYRQAPGKERELVATSSSGGSTNYADSVKRRFTISRDNAKNTVYLQRNSLKPEDTAVYYCAAYSTWRRIQFWGYNYWGQGTQVTVSS,high polyreactivity
21,QLQLVESGGGLVQAGASLRLSCADSRRIFDYNVMGRYIQAPGKEREVVADINGSGGGTNYEDSVKGRFTISRDNAKNTVYLQMNILKPEDTAVYYCNADSYEYHVPYYDYRYDYWGQGTQVTVSS,low polyreactivity
22,QVQLVESGGGLVQAGGSLRLSCAASGSIFWYNTMGWYRQAPGKERELVAAITFSGGSTYYADSVKERFTISRDNAKNTVYLQMNSLKPEDTAVYYCAAVFYSAVGYYYWGQGTQVTVSS,low polyreactivity
